# Measurements reported in PMC3017675 (Journal of molecular biology, 2010).
# B1: KasA peptides Group H (spots F12-F17) (peptide)
# peptide: APAADGVRAGRAMTRSLELAGL
# B2: KasA peptides Group G (spots F01-F04) (peptide)
# peptide: RGAKPLARLLGAGITSDA
# B3: KasA peptides Group I (spots G20-G24) (peptide)
# peptide: AVGALESVLTVLTLRDGVIP
# B4: KasA peptides Group A (spots A05-A08) (peptide)
# peptide: GGFPSVVVTAVTATTSIS
# Assays:
# [1] = target: full-length Mycobacterium tuberculosis GroEL1 (M. tuberculosis H37Rv) (UniProt P9WPE9); test: SEC
# [2] = target: full-length M. tuberculosis GroEL2 (M. tuberculosis, UniProt P9WPE7 1-540); test: peptide or protein array
# full-length M. tuberculosis GroEL2, sequence (P9WPE7 whole entry): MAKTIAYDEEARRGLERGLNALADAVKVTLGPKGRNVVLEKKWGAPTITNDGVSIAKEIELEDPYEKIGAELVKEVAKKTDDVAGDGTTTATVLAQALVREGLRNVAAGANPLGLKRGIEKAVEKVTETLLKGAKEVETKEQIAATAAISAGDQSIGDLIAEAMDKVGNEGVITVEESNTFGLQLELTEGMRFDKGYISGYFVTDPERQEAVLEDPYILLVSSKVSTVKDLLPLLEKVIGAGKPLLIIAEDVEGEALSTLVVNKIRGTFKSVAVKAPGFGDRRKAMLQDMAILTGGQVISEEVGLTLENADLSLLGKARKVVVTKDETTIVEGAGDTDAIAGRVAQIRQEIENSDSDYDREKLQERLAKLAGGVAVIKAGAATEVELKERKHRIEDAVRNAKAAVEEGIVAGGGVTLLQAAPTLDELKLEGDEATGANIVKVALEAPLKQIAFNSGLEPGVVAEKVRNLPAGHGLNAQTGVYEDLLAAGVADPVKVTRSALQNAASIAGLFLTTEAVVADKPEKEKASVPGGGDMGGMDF
Molecule,stoichiometry N [1],binding result [2]
full-length Mycobacterium tuberculosis GroEL1 (from UniProt P9WPE9 1-539) (natural protein),2,–
B1,–,binds
B2,–,binds
B3,–,binds
B4,–,binds
